Data from the supplement of paper PMC6757056.
± gives the standard deviation of the averaged measurements.

B1: library; a variant is named by its letters at N, in order (parent)
chain: GCUGUCACCGGUGUAUUACCCUAGUGGUCGACCGGUCUGAUGAGUCUNNNNNNAGACGAAACAGC

Key:
[1] = variants of: B1; assay: FACS-Seq fitted mean relative fluorescence mCherry/BFP without ligand (log10 relative fluorescence); ligand: hypoxanthine (xanthine aptamer); higher = higher reporter protein expression; settings: HEK293T, ligand present: no
Method: (§1)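 Hammerhead (sTRSV) ribozyme switch libraries with a ligand aptamer grafted on stem I and a randomized N4-6 loop II, cloned into the 3' UTR of mCherry and transiently transfected into HEK293T cells; RNA-Seq 72 h post transfection with ligand added 1 h before transfection; RNA read count / plasmid DNA read count normalized to the non-cleaving sTRSVctl (x100), log10; sequences with >100 DNA reads. FACS-Seq: lentiviral library sorted into 6 bins after 48 h ligand, log-normal fit mean of mCherry/BFP scaled to controls. Printed sequences are partial switch sequences.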

[2] = variants of: B1; assay: normalized RNA/DNA level with ligand (relative to sTRSVctl = 100) (log10 (% of sTRSVctl)); ligand: hypoxanthine (xanthine aptamer); higher = less ribozyme self-cleavage, higher mRNA level; settings: ligand concentration (+) RNA-Seq: 5 mM, HEK293T, reporter: mCherry (pCS4076), ligand present: yes
Method: as §1

[3] = variants of: B1; assay: normalized RNA/DNA level without ligand (relative to sTRSVctl = 100) (log10 (% of sTRSVctl)); ligand: hypoxanthine (xanthine aptamer); higher = less ribozyme self-cleavage, higher mRNA level; settings: HEK293T, reporter: mCherry (pCS4076), ligand present: no
Method: as §1

[4] = variants of: B1; assay: FACS-Seq fitted mean relative fluorescence mCherry/BFP with ligand (log10 relative fluorescence); ligand: hypoxanthine (xanthine aptamer); ligand concentration (+) FACS-Seq: 5 mM; higher = higher reporter protein expression; settings: HEK293T, ligand present: yes
Method: as §1

Row | Variant | FACS-Seq fitted mean (log10) [1] | normalized RNA/DNA level with ligand (log10) [2] | normalized RNA/DNA level without ligand (log10) [3] | FACS-Seq fitted mean (log10) [4]
1 | GAACGC | 0.366 ± 0.038 | 1.85 ± 0.038 | 1.592 ± 0.0033 | 0.684 ± 0.031
2 | GAACGA | 0.281 ± 0.023 | 1.91 ± 0.049 | 1.62 ± 0.046 | 0.454 ± 0.011
3 | GAAAUA | 0.105 ± 0.023 | 1.92 ± 0.055 | 1.85 ± 0.028 | 0.082 ± 0.037
4 | GAAAUG | 0.0921 ± 0.028 | 1.86 ± 0.075 | 1.44 ± 0.035 | 0.497 ± 0.047
5 | AAAAGU | 0.21 ± 0.0047 | 1.854 ± 0.011 | 1.55 ± 0.032 | 0.339 ± 0.09
6 | AAAAGG | 0.163 ± 0.004 | 1.78 ± 0.06 | 1.26 ± 0.027 | 0.725 ± 0.056
7 | AAAAGA | 0.199 ± 0.0066 | 1.91 ± 0.053 | 1.67 ± 0.025 | 0.556 ± 0.061
8 | CAAAGU | 0.529 ± 0.021 | 1.89 ± 0.0058 | 1.82 ± 0.033 | 0.571 ± 0.0084
9 | CAACAC | 0.465 ± 0.089 | 1.895 ± 0.0089 | 1.69 ± 0.047 | 0.206 ± 0.043
10 | CAACAU | 0.722 ± 0.052 | 1.87 ± 0.032 | 1.75 ± 0.035 | 0.672 ± 0.078
11 | UAAAUG | 0.306 ± 0.023 | 1.936 ± 0.015 | 1.73 ± 0.035 | 0.483 ± 0.081
12 | UAAAUU | 0.543 ± 0.057 | 1.92 ± 0.024 | 1.85 ± 0.035 | 0.516 ± 0.066
13 | UAAAUA | 0.398 ± 0.012 | 1.92 ± 0.026 | 1.836 ± 0.002 | 0.49 ± 0.045
14 | CAACGA | 0.153 ± 0.16 | 1.951 ± 0.011 | 1.79 ± 0.036 | 0.353 ± 0.055
15 | CAACGC | 0.362 ± 0.014 | 1.92 ± 0.073 | 1.87 ± 0.019 | 0.326 ± 0.019
16 | AAACCA | 0.0882 ± 0.014 | 1.924 ± 0.014 | 1.81 ± 0.016 | 0.122 ± 0.038
17 | AAACCC | 0.474 ± 0.095 | 1.95 ± 0.022 | 1.833 ± 0.0068 | 0.431 ± 0.021
18 | AAACCU | 0.484 ± 0.082 | 1.94 ± 0.033 | 1.87 ± 0.02 | 0.2749 ± 0.00055

Row | Variant | FACS-Seq fitted mean (log10) [1] | normalized RNA/DNA level with ligand (log10) [2] | normalized RNA/DNA level without ligand (log10) [3] | FACS-Seq fitted mean (log10) [4]
19 | AAACCG | 0.278 ± 0.022 | 1.8 ± 0.029 | 1.37 ± 0.029 | 0.73 ± 0.045
20 | GAAAAG | 0.326 ± 0.035 | 1.83 ± 0.0058 | 1.47 ± 0.038 | 0.473 ± 0.036
21 | GAAAAU | 0.558 ± 0.04 | 1.92 ± 0.034 | 1.8 ± 0.02 | 0.532 ± 0.074
22 | GAAAAA | 0.653 ± 0.036 | 1.91 ± 0.027 | 1.8 ± 0.041 | 0.629 ± 0.093
23 | GAAAAC | 0.271 ± 0.058 | 1.87 ± 0.053 | 1.7 ± 0.033 | 0.271 ± 0.06
24 | GAACAG | 0.213 ± 0.041 | 1.8069 ± 0.00086 | 1.42 ± 0.061 | 0.674 ± 0.014
25 | GAACAU | 0.466 ± 0.11 | 1.907 ± 0.00016 | 1.766 ± 0.01 | 0.349 ± 0.12
26 | GAACAA | 0.477 ± 0.021 | 1.91 ± 0.046 | 1.732 ± 0.0073 | 0.62 ± 0.022
27 | GAACAC | 0.66 ± 0.029 | 1.95 ± 0.029 | 1.74 ± 0.024 | 0.622 ± 0.049
28 | CAAAUA | 0.317 ± 0.014 | 1.9 ± 0.06 | 1.7391 ± 0.00044 | 0.196 ± 0.037
29 | CAAAUC | 0.445 ± 0.1 | 1.95 ± 0.039 | 1.927 ± 0.0086 | 0.495 ± 0.037
30 | GAAACC | 0.401 ± 0.023 | 1.897 ± 0.011 | 1.85 ± 0.022 | 0.469 ± 0.033
31 | GAAACU | 0.54 ± 0.047 | 1.92 ± 0.042 | 1.89 ± 0.039 | 0.481 ± 0.042
32 | GAAACA | 0.6 ± 0.025 | 1.91 ± 0.047 | 1.857 ± 0.0049 | 0.389 ± 0.13
33 | GAAACG | 0.287 ± 0.024 | 1.88 ± 0.023 | 1.51 ± 0.048 | 0.561 ± 0.048
34 | CAAACC | 0.631 ± 0.0022 | 1.96 ± 0.046 | 1.867 ± 0.0027 | 0.622 ± 0.027
35 | UAACCG | 0.631 ± 0.023 | 1.95 ± 0.04 | 1.68 ± 0.033 | 0.756 ± 0.013
36 | UAACCC | 0.667 ± 0.078 | 1.94 ± 0.08 | 1.856 ± 0.0018 | 0.767 ± 0.065
